In patent publication US7101845 (JOSLIN DIABETES CENTER, dated 2006):
Positions of bridges follow the written chain, without caps; N, C: chain ends.

Biological target: MCH receptor (MCHR1) (mouse, UniProt Q8JZL2 1-353)
Assay: cell-based or functional assay

Sequence of MCH receptor (MCHR1) (Q8JZL2 whole entry): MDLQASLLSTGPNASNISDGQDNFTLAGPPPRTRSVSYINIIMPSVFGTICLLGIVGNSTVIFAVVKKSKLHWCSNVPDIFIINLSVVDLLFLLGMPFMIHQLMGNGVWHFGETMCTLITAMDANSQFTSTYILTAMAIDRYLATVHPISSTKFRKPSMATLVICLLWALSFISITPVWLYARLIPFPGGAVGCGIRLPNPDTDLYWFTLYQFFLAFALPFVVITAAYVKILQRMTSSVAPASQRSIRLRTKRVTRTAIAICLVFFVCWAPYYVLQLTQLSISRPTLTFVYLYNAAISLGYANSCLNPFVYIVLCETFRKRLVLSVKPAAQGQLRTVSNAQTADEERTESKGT

insulin secretion from islets of MCH over expressing mice: 4 fold
insulin secretion from overnight cultured islets of C57B1/6J mice, 100 nM MCH, 30 min, 11.1 mM glucose: 2.4 fold
Binder: H-DFDMLRCMLGRVYRPCWQV-OH (disulfide 7-16 (inferred)) [Melanocyte concentrating hormone (MCH)]
